Laboratory results reported in paper PMC9482650, “Quantitative fragmentomics allow affinity mapping of interactomes” (Nature Communications, 2022).

T1: MPDZ_12, O75970
T1 sequence (O75970 1857-1958, limits assumed, looked up): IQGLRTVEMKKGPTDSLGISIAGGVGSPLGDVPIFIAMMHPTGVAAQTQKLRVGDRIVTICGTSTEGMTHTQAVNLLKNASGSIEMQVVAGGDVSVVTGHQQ

T2: GRIP1_3, Q9Y3R0
T2 sequence (Q9Y3R0 247-346, limits assumed, looked up): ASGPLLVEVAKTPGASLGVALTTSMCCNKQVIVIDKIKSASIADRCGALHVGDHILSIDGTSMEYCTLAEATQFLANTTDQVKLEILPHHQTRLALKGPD

T3: DVL3, Q92997
T3 sequence (Q92997 244-331, limits assumed, looked up): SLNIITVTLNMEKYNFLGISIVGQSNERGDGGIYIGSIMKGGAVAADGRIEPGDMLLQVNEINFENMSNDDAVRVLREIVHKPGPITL

T4: DFNB31_1, Q9P202
T4 sequence (Q9P202 135-233, limits assumed, looked up): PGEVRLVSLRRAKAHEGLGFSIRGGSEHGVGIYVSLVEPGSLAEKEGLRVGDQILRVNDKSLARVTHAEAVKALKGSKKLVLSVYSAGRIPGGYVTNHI

T5: LRRC7, Q96NW7
T5 sequence (Q96NW7 1440-1537, limits assumed, looked up): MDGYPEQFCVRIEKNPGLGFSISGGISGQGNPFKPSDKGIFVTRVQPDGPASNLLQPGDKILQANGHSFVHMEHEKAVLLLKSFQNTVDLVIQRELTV

T6: RHPN1, Q8TCX5
T6 sequence (Q8TCX5 508-602, limits assumed, looked up): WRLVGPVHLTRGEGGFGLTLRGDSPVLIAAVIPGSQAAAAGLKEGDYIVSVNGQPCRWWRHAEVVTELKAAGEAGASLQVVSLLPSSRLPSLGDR

T7: APBA2_1, Q99767
T7 sequence (Q99767 563-664, limits assumed, looked up): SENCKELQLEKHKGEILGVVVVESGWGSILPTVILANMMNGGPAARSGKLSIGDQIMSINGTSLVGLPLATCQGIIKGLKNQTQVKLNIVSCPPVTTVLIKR

T8: SNTG2, Q9NY99
T8 sequence (Q9NY99 68-166, limits assumed, looked up): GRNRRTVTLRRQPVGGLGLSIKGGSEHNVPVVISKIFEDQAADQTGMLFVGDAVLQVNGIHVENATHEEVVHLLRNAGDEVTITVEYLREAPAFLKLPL

T9: GRIP1_2, Q9Y3R0
T9 sequence (Q9Y3R0 145-248, limits assumed, looked up): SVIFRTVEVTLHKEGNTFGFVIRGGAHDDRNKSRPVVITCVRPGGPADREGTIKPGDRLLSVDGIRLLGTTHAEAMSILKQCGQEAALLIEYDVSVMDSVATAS

T10: SNTB1, Q13884
T10 sequence (Q13884 107-205, limits assumed, looked up): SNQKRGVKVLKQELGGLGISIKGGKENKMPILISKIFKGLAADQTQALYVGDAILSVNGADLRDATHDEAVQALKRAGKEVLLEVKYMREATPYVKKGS

T11: PDZRN3_1, Q9UPQ7
T11 sequence (Q9UPQ7 244-349, limits assumed, looked up): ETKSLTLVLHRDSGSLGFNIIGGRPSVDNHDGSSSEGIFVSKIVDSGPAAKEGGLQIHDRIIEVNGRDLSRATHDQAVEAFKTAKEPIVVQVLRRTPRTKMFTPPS

T12: RADIL, Q96JH8
T12 sequence (Q96JH8 971-1071, limits assumed, looked up): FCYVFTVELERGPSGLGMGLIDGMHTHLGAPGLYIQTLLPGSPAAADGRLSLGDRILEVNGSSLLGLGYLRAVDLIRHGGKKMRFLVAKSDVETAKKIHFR


Legend:
Experiment in all cases: holdup assay
Parameters in all cases: key: below the threshold = too weak to quantify, mostly under pKd 3.1 to 4
Settings in all cases: plain residues with an end cap or a label only (N-terminal biotin on a linker: ado-ado)
[1] = target: T1, MPDZ_12, O75970
[2] = target: SCRIB_1, Q14160
Sequence of SCRIB_1, Q14160 (Q14160 718-814): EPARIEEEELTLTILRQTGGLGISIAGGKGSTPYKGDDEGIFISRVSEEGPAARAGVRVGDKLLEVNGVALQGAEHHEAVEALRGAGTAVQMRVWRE

[3] = target: DLG4_3, P78352
Sequence of DLG4_3, P78352 (P78352 306-403): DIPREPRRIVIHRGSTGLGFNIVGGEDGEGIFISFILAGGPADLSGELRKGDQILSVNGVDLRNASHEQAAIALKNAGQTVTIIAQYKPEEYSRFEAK

[4] = target: NHERF4_2, Q86UT5
Sequence of NHERF4_2, Q86UT5 (Q86UT5 220-308): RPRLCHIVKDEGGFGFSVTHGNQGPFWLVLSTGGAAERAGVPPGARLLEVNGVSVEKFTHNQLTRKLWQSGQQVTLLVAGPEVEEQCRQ

[5] = target: MAGI2_5, Q86UL8
Sequence of MAGI2_5, Q86UL8 (Q86UL8 915-1017): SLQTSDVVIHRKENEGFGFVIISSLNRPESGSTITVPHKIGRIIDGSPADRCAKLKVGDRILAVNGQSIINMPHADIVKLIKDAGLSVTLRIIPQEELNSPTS

[6] = target: T2, GRIP1_3, Q9Y3R0
[7] = target: PARD3_3, Q8TEW0
Sequence of PARD3_3, Q8TEW0 (Q8TEW0 582-685): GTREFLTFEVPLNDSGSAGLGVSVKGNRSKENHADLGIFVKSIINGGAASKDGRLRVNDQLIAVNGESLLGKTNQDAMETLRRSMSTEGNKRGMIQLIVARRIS

[8] = target: Inadl_10, Q8NI35
Sequence of Inadl_10, Q8NI35 (Q8NI35 1673-1763): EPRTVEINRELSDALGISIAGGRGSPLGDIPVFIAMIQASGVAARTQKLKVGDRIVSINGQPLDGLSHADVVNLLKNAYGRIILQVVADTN

[9] = target: DLG1_2, Q12959
Sequence of DLG1_2, Q12959 (Q12959 314-412): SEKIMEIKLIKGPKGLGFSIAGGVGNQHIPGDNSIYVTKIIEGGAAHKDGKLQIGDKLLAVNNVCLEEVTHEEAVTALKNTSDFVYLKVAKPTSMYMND

[10] = target: DLG2_3, Q15700
[11] = target: Inadl_4, Q8NI35
Sequence of Inadl_4, Q8NI35 (Q8NI35 547-651): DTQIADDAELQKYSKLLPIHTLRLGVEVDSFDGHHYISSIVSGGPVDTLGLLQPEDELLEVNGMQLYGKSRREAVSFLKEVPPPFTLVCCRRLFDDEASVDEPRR

[12] = target: T3, DVL3, Q92997
[13] = target: ARHGEF12, Q9NZN5-2
Sequence of ARHGEF12, Q9NZN5-2 (Q9NZN5 other isoform, or with tags, fused parts or gaps): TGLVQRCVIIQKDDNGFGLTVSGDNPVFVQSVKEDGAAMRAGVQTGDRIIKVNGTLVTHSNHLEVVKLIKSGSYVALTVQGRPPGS

[14] = target: T4, DFNB31_1, Q9P202
[15] = target: T5, LRRC7, Q96NW7
[16] = target: SCRIB_3, Q14160
Sequence of SCRIB_3, Q14160 (Q14160 999-1103): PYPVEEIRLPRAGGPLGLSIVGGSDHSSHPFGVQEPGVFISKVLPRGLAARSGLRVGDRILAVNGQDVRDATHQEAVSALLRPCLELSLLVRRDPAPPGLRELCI

[17] = target: T6, RHPN1, Q8TCX5
[18] = target: T7, APBA2_1, Q99767
[19] = target: T8, SNTG2, Q9NY99
[20] = target: MAGI2_3, Q86UL8
Sequence of MAGI2_3, Q86UL8 (Q86UL8 600-682): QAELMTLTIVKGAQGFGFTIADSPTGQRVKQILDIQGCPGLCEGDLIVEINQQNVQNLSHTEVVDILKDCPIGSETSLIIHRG

[21] = target: T9, GRIP1_2, Q9Y3R0
[22] = target: T10, SNTB1, Q13884
[23] = target: AHNAK1, Q09666
Sequence of AHNAK1, Q09666 (Q09666 4-100): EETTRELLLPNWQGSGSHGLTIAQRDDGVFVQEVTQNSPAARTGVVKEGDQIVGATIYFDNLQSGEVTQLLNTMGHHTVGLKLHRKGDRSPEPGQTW

[24] = target: T11, PDZRN3_1, Q9UPQ7
[25] = target: T12, RADIL, Q96JH8

Row | Binder | pKd [1] | pKd [2] | pKd [3] | pKd [4] | pKd [5] | pKd [6] | pKd [7] | pKd [8] | pKd [9] | pKd [10] | pKd [11] | pKd [12] | pKd [13] | pKd [14] | pKd [15] | pKd [16] | pKd [17] | pKd [18] | pKd [19] | pKd [20] | further results
1 | LVEEEEPMNL [HDAC7, Q8WUI4] | below the threshold | below the threshold | below the threshold | below the threshold | below the threshold | below the threshold | 4.23 | below the threshold | below the threshold | below the threshold | below the threshold | below the threshold | below the threshold | below the threshold | below the threshold | below the threshold | below the threshold | below the threshold | below the threshold | below the threshold | pKd [21]: below the threshold; pKd [22]: below the threshold; pKd [23]: below the threshold; pKd [24]: below the threshold; pKd [25]: below the threshold
2 | ADEMICITTL [CACNA1D, Q01668] | 4.02 | 4.89 | below the threshold | below the threshold | 4.76 | below the threshold | 4.38 | 4.42 | 4.06 | 3.81 | below the threshold | below the threshold | 6.18 | 3.63 | 3.8 | 4.88 | 5.05 | below the threshold | 4.47 | 3.56 | pKd [21]: below the threshold; pKd [22]: 4.84; pKd [23]: below the threshold; pKd [24]: below the threshold; pKd [25]: 4.62

Now from value to binder, other results behind:

Row | pKd [1] | pKd [2] | pKd [3] | pKd [4] | pKd [5] | pKd [6] | pKd [7] | pKd [8] | pKd [9] | pKd [10] | pKd [11] | pKd [12] | pKd [13] | pKd [14] | pKd [15] | pKd [16] | pKd [17] | pKd [18] | pKd [19] | pKd [20] | Binder | further results
3 | below the threshold | below the threshold | below the threshold | below the threshold | below the threshold | below the threshold | below the threshold | below the threshold | below the threshold | 3.56 | below the threshold | below the threshold | below the threshold | below the threshold | below the threshold | below the threshold | below the threshold | below the threshold | below the threshold | below the threshold | MLPANYVEAI [NEB, P20929] | pKd [21]: below the threshold; pKd [22]: below the threshold; pKd [23]: below the threshold; pKd [24]: below the threshold; pKd [25]: 3.65
4 | below the threshold | 5.19 | 4.17 | below the threshold | 3.96 | below the threshold | 3.81 | below the threshold | 5.03 | 4.16 | below the threshold | below the threshold | 4.57 | 5.43 | 3.53 | 5 | 4.84 | below the threshold | 5.1 | 3.96 | TKDKVQETQI [LRRC4, Q9HBW1] | pKd [21]: below the threshold; pKd [22]: 5.08; pKd [23]: below the threshold; pKd [24]: 4.4; pKd [25]: below the threshold
